From WO2009030872A1 (dated 2009)

Tests used:
[1] = molecular target: T1, E1E2 of HCV genotype 1a isolate H77c (hepatitis C virus genotype 1a, strain …, UniProt P27958 386-729; P27958 193-382); experiment: inferred from GNA capture ELISA binding curve by non-linear regression
[2] = molecular target: T1, E1E2 of HCV genotype 1a isolate H77c; experiment: GNA capture ELISA on E1E2 of H77c
[3] = molecular target: E1E2 of HCV genotype 2a isolate JFH-1 (hepatitis C virus genotype 2a, isolate …); experiment: cell-based or functional assay
[4] = molecular target: E1E2 of HCV isolate H77c with E2 substitution D535A (hepatitis C virus genotype 1a, isolate …, UniProt P27958 386-729; P27958 193-382); experiment: GNA capture ELISA on alanine-substituted H77c E1E2
[5] = molecular target: E1E2 of HCV isolate H77c with E2 substitution G523A (hepatitis C virus genotype 1a, isolate …, UniProt P27958 386-729; P27958 193-382); experiment: GNA capture ELISA on alanine-substituted H77c E1E2
[6] = molecular target: E1E2 of HCV isolate H77c with E2 substitution W529A (hepatitis C virus genotype 1a, isolate …, UniProt P27958 386-729; P27958 193-382); experiment: GNA capture ELISA on alanine-substituted H77c E1E2
[7] = molecular target: E1E2 of HCV isolate H77c with E2 substitution G530A (hepatitis C virus genotype 1a, isolate …, UniProt P27958 386-729; P27958 193-382); experiment: GNA capture ELISA on alanine-substituted H77c E1E2

B1: human monoclonal antibody clone L1 (antibody, V domains shown)
VH: EVQLLESGGGVVQPGRSLRLSCAASGFTFSAYGMHWVRQAPGKGLEWVAGIWFDGSNQYYSDSVKGRFTVSRDNSRNTLFLQMNSLRPEDTAVYYCATEVLFGSIKGRYYLENWGQGTLVTVSS
VL: AELTQSPGTLSLSVGERATLSCRASQNIYSGYLGWYQQKPGQPPRLLIYGASNRATGIPDRFSGSGSGTDFTLTISRLESEDFAVYYCQQYGSPPYTFGQGTKVEIK
notes: also called mAb L1; Ll
Q: For B1, which Kd [1] is on record?
A: The Kd was ~15 nM.

Q: What about the EC50 [2] of the same binder?
A: The EC50 was 2.31 µg/mL.

B2: human monoclonal antibody clone A8 (antibody, V domains shown)
VH: EVQLLESGPGLVKPSGTLSLTCTVSGGSIRSSHWWSWVRQPPGKGLEWIGEVFFSGSTIYNPSLNDRVFMSVDKSKDQVSLRLSSVTAADTAVYYCARSPIKMNQGRMMLDAFDIWGQGTLVIVSS
VL: AELTQSPSSLSAFVGDRVTITCRASQSISRNLNWYQQKPGTAPKVLIYAASSLQSGVPSRFSGSGSGTDFTLTITSLQPEDFATYYCQQSYTTPRTFGQGTKVEVK
notes: also called mAb A8
Q: Which Kd [1] does the source give for B2 here?
A: Its Kd is ~2.7 nM.

Q: What about the “IC50 of neutralization of HCVcc JFH-1 (density of E2 after western blotting)” value [3] of the same binder?
A: The value was ~0.56 µg/mL.

Q: Does B2 bind [4]?
A: Result: no binding

Q: Does B2 bind [5]?
A: Result: no binding

Q: Does B2 bind [6]?
A: Result: no binding

Q: Does B2 bind [7]?
A: Result: no binding

Q: What about the EC50 [2] of the same binder?
A: Its EC50 is 0.44 µg/mL.

B3: human monoclonal antibody clone 1:7 (antibody, V domains shown)
VH: VQLLEQSGAEVKKPGSSVKVSCQVFGDTFSRYTIQWLRQAPGQGPEWMGNIIPVYNTPNYAQKFQGRLSITADDSTSTAYMELSSLRSEDTAVYFCARVVIPNAIRHTMGYYFDYWGQGTLVTVSS
VL: AELTQSPATLSLSPGERATLSCRASQSVNKYLAWYQQKPGQAPRLLIYDASNRATGIPARFSGSGSGTDFTLTISNLEPEDFAVYYCQQRSDWVTFGGGTKVEIK
notes: also called mAb 1:7
Q: Which results are given for B3?
A: Kd [1]: ~4.1 nM; IC50 of neutralization of HCVcc JFH-1 (density of E2 after western blotting) [3]: ~0.06 µg/mL; binding result [4]: no binding; binding result [5]: no binding; binding result [6]: no binding; binding result [7]: no binding; EC50 [2]: 0.67 µg/mL
